Laboratory results reported in patent publication US20160185837A1 (Medimmune Limited, priority 2013, published 2016).
Where two headings read alike, the source gives them in different places.

Tests used:
Assay type in all cases: cell-based
[1] = target: T1, mouse GIP receptor (mGIPr) (Mus musculus, UniProt Q0P543); assay: BSA-cAMP assay, cells expressing mouse GIP receptor; details: BSA-cAMP assay, read-out: mGIPr cAMP activity EC50
T1 construct: expressed in transfected cells; host or cells: HEK293s or CHO cells
T1 sequence (Q0P543 19-460): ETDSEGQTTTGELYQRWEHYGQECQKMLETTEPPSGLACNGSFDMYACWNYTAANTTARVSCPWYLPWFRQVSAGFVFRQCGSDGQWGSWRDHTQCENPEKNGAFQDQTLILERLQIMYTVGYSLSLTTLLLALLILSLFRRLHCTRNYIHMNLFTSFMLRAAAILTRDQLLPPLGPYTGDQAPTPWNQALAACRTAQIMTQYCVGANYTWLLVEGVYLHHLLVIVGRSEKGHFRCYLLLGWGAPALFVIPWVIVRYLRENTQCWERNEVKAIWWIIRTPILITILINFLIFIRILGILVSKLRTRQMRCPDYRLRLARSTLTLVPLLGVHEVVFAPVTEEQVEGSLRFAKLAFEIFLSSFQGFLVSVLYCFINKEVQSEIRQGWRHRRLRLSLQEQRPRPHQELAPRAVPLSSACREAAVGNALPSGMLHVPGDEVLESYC
Procedure, shortened: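 EC50 is the midpoint of an unconstrained 4-parameter logistic fit to HTRF cAMP data, expressed as percent of maximal native agonist response, from two separate occasions. Rodent (mouse, rat) GLP-1R- or GIPR-expressing cells were incubated with compound 30 min at room temperature in 0.1% BSA medium, in duplicate.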

[2] = target: T2, rat GIP receptor (rGIPr) (Rattus norvegicus, UniProt P43219); assay: BSA-cAMP assay, cells expressing rat GIP receptor; details: BSA-cAMP assay, read-out: rGIPr cAMP activity EC50
T2 construct: expressed in transfected cells; host or cells: HEK293s or CHO cells
T2 sequence (P43219 19-455): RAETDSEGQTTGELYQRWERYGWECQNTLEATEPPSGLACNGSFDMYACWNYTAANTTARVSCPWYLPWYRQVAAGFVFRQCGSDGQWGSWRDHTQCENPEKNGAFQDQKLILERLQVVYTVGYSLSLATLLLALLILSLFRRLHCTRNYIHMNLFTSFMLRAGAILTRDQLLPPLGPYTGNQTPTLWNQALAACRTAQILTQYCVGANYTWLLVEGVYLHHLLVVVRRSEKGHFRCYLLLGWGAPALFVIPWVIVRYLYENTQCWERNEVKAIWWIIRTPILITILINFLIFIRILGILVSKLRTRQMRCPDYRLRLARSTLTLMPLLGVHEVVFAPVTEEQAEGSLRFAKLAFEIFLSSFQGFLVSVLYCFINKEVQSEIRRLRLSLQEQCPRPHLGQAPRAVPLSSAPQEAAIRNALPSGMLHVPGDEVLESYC
Procedure: (§1) One basic cAMP assays was performed, differing in the medium used for the assay, the “BSA-cAMP assay”:
(§2) BSA-based assay medium: 0.1% bovine serum albumin (BSA) in
(§3) In certain aspects, the assay can also be carried out in medium supplemented with serum albumin that corresponds to the receptor being tested, e.g., human serum albumin for testing cAMP activity at hGIPr or hGLP-1r, rat serum albumin for testing cAMP activity at rGIPr or rGLP-1r, and so on. […] All sample dilutions were made in duplicate.
(§4) A frozen cryo-vial of cells expressing the receptor of interest was thawed rapidly in a water-bath, transferred to pre-warmed assay media and spun at 240×g for 5 minutes. Cells were re-suspended in assay buffer at an optimized concentration (e.g., hGLP-1r and hGIPr cells at 0.5×10^5 cells/ml).
(§5) To this, 5 μL cell suspension was added and the plates incubated at room temperature for 30 minutes.
(§6) cAMP levels were measured using a commercially available cAMP dynamic 2 HTRF kit (Cisbio, Cat #62AM4PEJ), following the two step protocol as per manufacturer's recommendations. In brief; anti-cAMP cryptate (donor fluorophore) and cAMP-d2 (acceptor fluorophore) were made up separately by diluting each 1/20 in conjugate & lysis buffer provided in the kit. 5 μL anti-cAMP cryptate was added to all wells of the assay plate, and 5 μL cAMP-d2 added to all wells except non-specific binding (NSB) wells, to which conjugate and lysis buffer was added. […] Data was transformed to % Delta F as described in manufacturer's guidelines and then transformed to percent activation of maximal native agonist response and analysed by 4-parameter logistic fit to determine EC50 values.
(§7) We used unconstrained 4 parameter logistic fit of data, curve mid-point to determine EC50. This was tested on two occasions, not two batches.
(§8) In order to be able to carry out in vivo studies in rodents, IP088 was tested for potency against the mouse receptors mGIPr and mGLP-1r as well as the rat receptors rGIPr and rGLP-1r, using cells expressing the respective receptors in the cAMP assay described above.

[3] = target: T3, human glucagon receptor (GCGr) (Homo sapiens, UniProt P47871); assay: BSA-cAMP assay, cells expressing human glucagon receptor
T3 construct: expressed in transfected cells; host or cells: HEK293s or CHO cells
T3 sequence (P47871 26-477): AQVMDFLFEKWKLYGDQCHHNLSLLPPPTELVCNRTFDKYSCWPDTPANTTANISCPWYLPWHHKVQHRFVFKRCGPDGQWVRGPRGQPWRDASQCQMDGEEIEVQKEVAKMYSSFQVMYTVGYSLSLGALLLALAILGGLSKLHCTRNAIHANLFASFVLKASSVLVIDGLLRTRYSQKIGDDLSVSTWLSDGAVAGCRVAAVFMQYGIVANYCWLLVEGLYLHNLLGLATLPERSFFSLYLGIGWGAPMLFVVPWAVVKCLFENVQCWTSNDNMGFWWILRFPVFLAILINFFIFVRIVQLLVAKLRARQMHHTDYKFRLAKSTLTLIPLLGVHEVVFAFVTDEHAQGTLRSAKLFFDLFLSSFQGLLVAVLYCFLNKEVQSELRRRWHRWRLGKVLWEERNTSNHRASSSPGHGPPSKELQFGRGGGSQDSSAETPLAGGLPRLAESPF

[4] = target: T4, human GLP-1 receptor (hGLP-1r) (Homo sapiens, UniProt P43220); assay: BSA-cAMP assay, cells expressing human GLP-1 receptor; details: BSA-cAMP assay, read-out: hGLP1r cAMP activity EC50
T4 construct: expressed in transfected cells
T4 sequence (P43220 24-463): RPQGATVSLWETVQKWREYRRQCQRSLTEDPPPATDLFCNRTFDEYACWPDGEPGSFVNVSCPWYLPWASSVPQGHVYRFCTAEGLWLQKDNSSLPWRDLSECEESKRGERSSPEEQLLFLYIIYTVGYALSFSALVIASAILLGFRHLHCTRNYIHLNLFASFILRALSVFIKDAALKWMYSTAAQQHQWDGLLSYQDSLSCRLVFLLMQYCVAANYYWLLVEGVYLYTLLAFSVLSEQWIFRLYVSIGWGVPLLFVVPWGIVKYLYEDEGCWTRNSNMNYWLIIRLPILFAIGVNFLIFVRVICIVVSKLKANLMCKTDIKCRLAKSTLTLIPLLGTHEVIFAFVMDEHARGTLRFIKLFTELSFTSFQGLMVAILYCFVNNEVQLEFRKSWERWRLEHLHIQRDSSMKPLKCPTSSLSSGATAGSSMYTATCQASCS
Procedure, shortened: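 EC50 came from an unconstrained 4-parameter logistic fit of HTRF cAMP data expressed as percent of maximal native agonist activation, tested on two occasions. Thawed receptor-expressing cells (hGLP-1r, hGIPr at 0.5×10^5 cells/ml) treated 30 min at room temperature in 0.1% BSA-containing medium; two distinct hGIPr lines.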

[5] = target: T5, mouse GLP-1 receptor (mGLP-1r) (Mus musculus, UniProt O35659); assay: BSA-cAMP assay, cells expressing mouse GLP-1 receptor; details: BSA-cAMP assay, read-out: mGLP1r cAMP activity EC50
T5 construct: expressed in transfected cells; host or cells: HEK293s or CHO cells
T5 sequence (O35659 22-463): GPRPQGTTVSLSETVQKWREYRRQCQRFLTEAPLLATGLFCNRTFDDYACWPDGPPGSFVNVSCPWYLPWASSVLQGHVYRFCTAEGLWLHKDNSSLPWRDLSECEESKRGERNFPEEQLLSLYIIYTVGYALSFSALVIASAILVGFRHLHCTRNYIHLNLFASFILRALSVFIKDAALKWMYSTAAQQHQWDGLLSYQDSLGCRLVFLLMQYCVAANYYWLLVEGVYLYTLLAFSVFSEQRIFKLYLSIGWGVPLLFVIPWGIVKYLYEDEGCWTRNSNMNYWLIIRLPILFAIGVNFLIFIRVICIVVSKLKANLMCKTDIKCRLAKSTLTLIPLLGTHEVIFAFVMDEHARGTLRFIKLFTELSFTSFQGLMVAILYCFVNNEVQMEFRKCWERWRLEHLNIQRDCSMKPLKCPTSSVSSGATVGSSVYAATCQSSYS
Procedure: as §1, §2, §3, §4, §5, §6, §7, §8

[6] = Batch 1, read-out: hGCGr cAMP activity EC50
[7] = Batch 2, read-out: hGCGr cAMP activity EC50

IP320 (YSEGTFTSDYAAAAEAAAAAAFAAWLAAAAGGGGGSGGGGSGGGGSGGGGSACPPC)
EC50 ([1]; Batch 1): > 3930 nM
EC50 ([2]; Batch 1): 130 nM
EC50 [3, 6]: 3800 nM
EC50 [3, 7]: 3800 nM
EC50 ([4]; Batch 1): 160 nM
EC50 ([4]; Batch 2): 260 nM
EC50 ([5]; Batch 1): 2500 nM

IP396 (YSEGTFTSDYSKLLERQAIDEFIAWLLKGGGGGGGSGGGGSGGGGSGGGGSACPPC)
EC50 ([1]; Batch 1): 0.28 nM
EC50 ([1]; Batch 2): 0.78 nM
EC50 ([2]; Batch 1): 0.19 nM
EC50 ([2]; Batch 2): 0.014 nM
EC50 [3, 6]: 330 nM
EC50 [3, 7]: 250 nM
EC50 ([4]; Batch 1): 0.11 nM
EC50 ([4]; Batch 2): 0.11 nM
EC50 ([5]; Batch 1): 1.2 nM
EC50 ([5]; Batch 2): 2.5 nM

IP412: Fc fusion, IgG1-TM, SEQ ID NO:387; agonist peptide YSEGTFTSDYSKLLEEEANRLFIEWLLAGG (YSEGTFTSDYSKLLEEEANRLFIEWLLAGGGGGGSGGGGSGGGGSGGGGSATHTCPPC)
EC50 ([1]; Batch 1): 0.4 nM
EC50 ([2]; Batch 1): 0.018 nM
EC50 [3, 6]: > 440 nM
EC50 ([4]; Batch 1): 0.073 nM
EC50 ([5]; Batch 1): 1.2 nM
